Assay [1] has as its target T1, cynomolgus monkey BTLA ECD-his (monomeric cynomolgus monkey BTLA-his) (cynomolgus monkey, UniProt A0A2K5W7M7 31-157).
T1 construct: extracellular domain; also called cynomolgus monkey BTLA extracellular domain
T1 sequence: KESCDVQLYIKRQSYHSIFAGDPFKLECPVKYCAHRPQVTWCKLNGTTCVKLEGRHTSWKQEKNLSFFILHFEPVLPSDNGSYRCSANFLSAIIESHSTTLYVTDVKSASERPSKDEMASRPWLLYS
Kind of assay: SPR, Biacore T200, antibody captured on anti-human IgG, monomeric cynomolgus monkey BTLA-his as analyte, 25 °C, 1:1 model; 6G3 IgG4 (APE10840.05) captured on the chip; cynomolgus BTLA-his analyte. The protocol:
Surface plasmon resonance (SPR) analyses were carried out using a Biacore T200 (GE Healthcare Life Sciences). Kinetic constants were determined using a 1:1 binding model in the Biacore T200 Evaluation Software to calculate on- and off-rates (kₐ and kd, respectively), and dissociation constants as a measure of overall affinity (KD). Anti-human IgG (GE Healthcare Life Sciences) was immobilized on a CMS chip using EDC-activated amine coupling chemistry (420 seconds contact at a flow rate of 10 μl/min). Antibodies (APE10585.04 6G3 IgG1 and APE10840.05 6G3 IgG4), each at 0.5 μg/m1) were captured in a 60 second contact with the flow cell using a flow rate of 10 μl/min. Monomeric human BTLA-his or cynomolgus monkey BTLA-his at 60 nM, 20 nM, 6.7 nM and 2.2 nM concentrations was flowed over captured antibody (480 seconds association, 1800 seconds dissociation). Runs were at 25° C. and used buffer containing 10 mM HEPES, pH 7.6, 150 mM NaCl, 3 mM EDTA, 0.05% polysorbate 20 (HBS-EP+, pH 7.6; Teknova) for the mobile phase and all dilutions. At the end of each cycle, bound antigen was removed by regeneration with two successive exposures (60 seconds and 90 seconds) to 3 M MgCl2 (30 μl/min). Sensorgrams and binding constants corresponding to the experiment are shown in FIG. 1 (human BTLA) and FIG. 1 (cynomolgus monkey BTLA). […]

For assay [2], the target named is β-galactosidase enzyme donor (ED)-tagged human BTLA on Jurkat cells (human, UniProt Q7Z6A9 31-289). The experiment in a line: cell-based or functional assay.
Assay [3] deals with T2, human BTLA ECD-his (monomeric human BTLA-his) (human, UniProt Q7Z6A9 31-157).
T2 construct: extracellular domain; also called human BTLA extracellular domain
T2 sequence (looked up): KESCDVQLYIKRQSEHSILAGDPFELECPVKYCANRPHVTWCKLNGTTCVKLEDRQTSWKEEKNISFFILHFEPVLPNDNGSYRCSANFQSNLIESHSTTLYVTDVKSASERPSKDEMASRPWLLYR
Kind of assay: Kinetic Exclusion Assay (KinExA 3000), solution phase, 6G3 IgG4 APE10840.04 at 100 pM, human BTLA ECD-his titrated. On the procedure: Solution-based affinity measurements of 6G3 IgG4 (APE10840.04 (H Chain SEQ ID NO: 144, L Chain SEQ ID NO: 174)) binding to BTLA were determined on a KinExA 3000 (Sapidyne Instruments). Azlactone beads (ThermoFisher Scientific) were coated with human BTLA ECD-his (30 μg/ml) or cynomolgus monkey BTLA ECD-his (20 μg/ml) in 50 mM Na2CO3 for 2 hours at room temperature and blocked with 10 mg/ml BSA. 6G3 IgG4 APE10840.04 concentration was kept constant at 100 pM for binding in both human and cynomolgus monkey BTLA experiments. Human or cynomolgus monkey BTLA ECD-his was added at 25° C. in 2.5-fold dilutions from 1000 nM to 68 fM. Sample sets were equilibrated at 4° C. for 72 hours and brought to room temperature for 6 hours before capturing free antibody with BTLA-coupled Azlactone beads. […] Maximum and background signals were determined on samples with 6G3 only and buffer only, respectively. Data were analyzed using KinExA Pro Software 3.2.6.

B1: 6G3 IgG4 anti-BTLA antibody (APE10840 / APE12839 / APE13308) (antibody, V domains shown)
VH: QVQLVQSGAEVKKPGSSVKVSCKASGYVFSTSWMNWVRQAPGQGLEWMGRIYPGDADTNYVGKFKGRVTITADKSTTTAYMELSSLRSEDTAVYFCAKSGTFNFGNYRWYFDVWGKGTTVTVSS
VL: AIQLTQSPSSLSASVGDRVTITCRVSENIYSHLAWYQQKPGKAPKLLIYAATNLALGVPSRFSGSGSGTDYTLTISSLQPEDFATYYCQLFWGPPLTFGGGTKVEIKR
notes: Humanized antibody from a mouse hybridoma, tested as human IgG4 (detected with anti-human kappa); Some assays used labelled lots (DyLight 650, AF647, biotin, DyL488); also called 6G3 antibody; APE10840.03
B1 showed a dissociation constant (Kd) in assay [1] of approximately 11 nM. For the same molecule, in assay [2], the “EC50, SHP2 recruitment PathHunter Jurkat BTLA signaling assay with U-2 OS hFcγRIa cells” value was 0.0093 mg/L; the “EC50, SHP2 recruitment PathHunter Jurkat BTLA signaling assay, soluble antibody” value came out at 0.125 mg/L; the “fold increase of agonist potency with cell-associated FcγRIa against the assay without FcγRIa” value is approximately 13 fold. Besides, the Kd in assay [3] was approximately 0.41 nM.

The values above are taken from patent US20230391872A1 (ANAPTYSBIO, published 2023).
